Measurements taken from patent publication US20170363643A1.

How the values were obtained:
[1] = biological target: His-tagged recombinant human SMN protein (ProteinTech, catalog # ag14333) (human) (UniProt Q16637); assay: Erenna sandwich assay, capture MABE230; SMN 2 pg/mL, MPs 5 µg/well, Det Ab 500 ng/mL, Cap Ab/MP 25 µg/mg
[2] = biological target: His-tagged recombinant human SMN protein (ProteinTech, catalog # ag14333) (human) (UniProt Q16637); assay: Erenna sandwich assay, capture MABE230; SMN 2 pg/mL, MPs 10 µg/well, Det Ab 1000 ng/mL, Cap Ab/MP 12.5 µg/mg
[3] = biological target: His-tagged recombinant human SMN protein (ProteinTech, catalog # ag14333) (human) (UniProt Q16637); assay: Erenna sandwich assay, capture MABE230; human CSF sample 5 spiked with recombinant SMN 10.0 pg/mL (endogenous SMN also present)
[4] = biological target: His-tagged recombinant human SMN protein (ProteinTech, catalog # ag14333) (human) (UniProt Q16637); assay: Erenna sandwich assay, capture MABE230 12.5 µg/mg MPs; Det Ab 500 ng/mL; SMN 66.67 pg/mL
[5] = biological target: His-tagged recombinant human SMN protein (ProteinTech, catalog # ag14333) (human) (UniProt Q16637); assay: Erenna sandwich assay, capture MABE230; SMN 2 pg/mL, MPs 10 µg/well, Det Ab 50 ng/mL, Cap Ab/MP 25 µg/mg
[6] = biological target: His-tagged recombinant human SMN protein (ProteinTech, catalog # ag14333) (human) (UniProt Q16637); assay: Erenna sandwich assay, capture MABE230; SMN 2 pg/mL, MPs 10 µg/well, Det Ab 50 ng/mL, Cap Ab/MP 12.5 µg/mg
[7] = biological target: His-tagged recombinant human SMN protein (ProteinTech, catalog # ag14333) (human) (UniProt Q16637); assay: Erenna sandwich assay, capture MABE230; human CSF sample 2 spiked with recombinant SMN 10.0 pg/mL (endogenous SMN also present)
[8] = biological target: His-tagged recombinant human SMN protein (ProteinTech, catalog # ag14333) (human) (UniProt Q16637); assay: Erenna sandwich assay, capture MABE230; SMN 2 pg/mL, MPs 5 µg/well, Det Ab 1000 ng/mL, Cap Ab/MP 25 µg/mg
[9] = biological target: His-tagged recombinant human SMN protein (ProteinTech, catalog # ag14333) (human) (UniProt Q16637); assay: Erenna sandwich assay, capture MABE230; SMN 2 pg/mL, MPs 5 µg/well, Det Ab 50 ng/mL, Cap Ab/MP 12.5 µg/mg
[10] = biological target: His-tagged recombinant human SMN protein (ProteinTech, catalog # ag14333) (human) (UniProt Q16637); assay: Erenna sandwich assay, capture MABE230; human CSF sample 3 spiked with recombinant SMN 5.0 pg/mL (endogenous SMN also present)

Sequence of UniProt Q16637 (Q16637 whole entry): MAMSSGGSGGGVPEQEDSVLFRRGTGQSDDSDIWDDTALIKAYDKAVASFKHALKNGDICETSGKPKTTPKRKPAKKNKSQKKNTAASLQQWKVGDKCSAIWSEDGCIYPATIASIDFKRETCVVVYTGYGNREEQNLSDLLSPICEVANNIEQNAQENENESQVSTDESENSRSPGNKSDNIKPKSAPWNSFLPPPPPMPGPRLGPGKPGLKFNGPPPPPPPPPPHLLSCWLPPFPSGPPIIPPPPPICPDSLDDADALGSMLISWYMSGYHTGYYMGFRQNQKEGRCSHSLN

detected events (DE) (detected events) [1]: 1930 | detected events (DE) (detected events) [2]: 2920 | detected events (DE) (detected events) [3]: 9440 | detected events (DE) (detected events) [4]: 12000 | event photons (EP) (event photons) [4]: 9.53e+06 | detected events (DE) (detected events) [5]: 776 | detected events (DE) (detected events) [6]: 681 | detected events (DE) (detected events) [7]: 9630 | detected events (DE) (detected events) [8]: 2180 | detected events (DE) (detected events) [9]: 450 | detected events (DE) (detected events) [10]: 5980
Substance: ProteinTech anti-SMN2 (catalog #60154-1-Ig) (antibody)
